The values below come from PMC2633459 (Molecular Vision, 2009).

As usually defined, the stoichiometry N is the number of molecules, sites or subunits per partner or assembly.

First the molecules themselves.
B1: wild type human βB2-crystallin (natural protein, UniProt P43320 1-205, looked up)
chain: MASDHQTQAGKPQSLNPKIIIFEQENFQGHSHELNGPCPNLKETGVEKAGSVLVQAGPWVGYEQANCKGEQFVFEKGEYPRWDSWTSSRRTDSLSSLRPIKVDSQEHKIILYENPNFTGKKMEIIDDDVPSFHAHGYQEKVSSVRVQSGTWVGYQYPGYRGLQYLLEKGDYKDSSDFGAPHPQVQSVRRIRDMQWHQRGAFHPSN
notes: human βB2-crystallin, wild type, recombinant; source: E. coli, purified (successive ion-exchange chromatography)
B2: wild type human βA3-crystallin (natural protein, UniProt P05813 1-215, looked up)
chain: METQAEQQELETLPTTKMAQTNPTPGSLGPWKITIYDQENFQGKRMEFTSSCPNVSERSFDNVRSLKVESGAWIGYEHTSFCGQQFILERGEYPRWDAWSGSNAYHIERLMSFRPICSANHKESKMTIFEKENFIGRQWEISDDYPSLQAMGWFNNEVGSMKIQSGAWVCYQYPGYRGYQYILECDHHGGDYKHWREWGSHAQTSQIQSIRRIQQ
notes: human βA3-crystallin, wild type, recombinant; no tag is mentioned; also called WT βA3; βA3 WT; source: E. coli, purified (successive ion-exchange chromatography)
B3: doubly deamidated mutant βA3 Q85E/Q180E (natural protein, human, UniProt P05813 1-215, looked up)
chain: B2 chain with Q85E, Q180E
notes: human βA3-crystallin with Q85E and Q180E (mimic of deamidation), recombinant; Homo-dimer by SEC-MALS at 37 °C; precipitates at 55 °C when alone; also called DM βA3; βA3 DM; source: E. coli, purified (successive ion-exchange chromatography)
B4: wild type human βB1-crystallin (natural protein, UniProt P53674 1-252, looked up)
chain: MSQAAKASASATVAVNPGPDTKGKGAPPAGTSPSPGTTLAPTTVPITSAKAAELPPGNYRLVVFELENFQGRRAEFSGECSNLADRGFDRVRSIIVSAGPWVAFEQSNFRGEMFILEKGEYPRWNTWSSSYRSDRLMSFRPIKMDAQEHKISLFEGANFKGNTIEIQGDDAPSLWVYGFSDRVGSVKVSSGTWVGYQYPGYRGYQYLLEPGDFRHWNEWGAFQPQMQSLRRLRDKQWHLEGSFPVLATEPPK
notes: human βB1-crystallin, wild type, recombinant; Mixture of monomers and dimers at the concentrations of the 1:1 experiments; dimer at the higher concentration of the 5:1 experiment; source: E. coli, purified (successive ion-exchange chromatography)

Numbering of substitutions follows the chain as printed. Names and notes keep the numbering of the source. Values joined by “and” are separate entries in the source; they are usually repeats but may differ in a detail not shown here. Equal values may be shown once.

Data set [1] concerns the molecule itself. Kind of data set: SEC-MALS; each crystallin alone, incubated 90 min at 37 °C; Superose 12 10/300 GL; pH 6.8, 29 mM Na2HPO4, 29 mM NaH2PO4, 100 mM KCl, 1 mM EDTA, 1 mM DTT.
Data set [2] concerns the target B3. Kind of data set: native gel or EMSA; blue-native PAGE, 4%–12% Bis-Tris gel, pH 7.0, 200 V, 4 °C; mixtures incubated at 37 °C for 60 min before the gel. To be noted: both partners purified.
Data set [3] concerns the molecule itself. Kind of data set: SEC-MALS; 5:1 molar ratio of βB1 to βA3 (to favour the βB1 dimer), injected immediately (0 min) or after 30 min at 37 °C; same buffer.
Data set [4] addresses B4. Kind of data set: SEC-MALS; 1:1 molar ratio of βA3 (WT or DM) with βB1 or βB2, final 0.4–0.5 mg/ml, incubated 90 min at 55 °C; filtered before injection; same buffer. The settings on record: both partners purified.

Regarding B1, in data set [1], the “stoichiometry N” value is 2 and 4. Besides, the binding result in data set [2] is on record as “binds”.
As to B2, the “stoichiometry N” value in data set [3] was determined as 2. Further, in data set [4], the binding result is recorded as “binds”.
With B3, in data set [1], the “stoichiometry N” value is 2.
In the case of B4, in data set [1], the “stoichiometry N” value is 2.
